Reference: publication PMC7076219 (2020)
Values joined by “and” are separate entries in the source; they are usually repeats but may differ in a detail not shown here. Identical values can stand only once.

What was measured:
[1] = target: T1, CD44/HCELL (hematopoietic cell E- and/or L-selectin ligand) (human (endogenous in KG1a), UniProt P16070-12 21-361); test: SPR
[2] = target: T1, CD44/HCELL (hematopoietic cell E- …); test: SPR; remark: listed apart in the source

T1 sequence (P16070 other isoform, or with tags, fused parts or gaps): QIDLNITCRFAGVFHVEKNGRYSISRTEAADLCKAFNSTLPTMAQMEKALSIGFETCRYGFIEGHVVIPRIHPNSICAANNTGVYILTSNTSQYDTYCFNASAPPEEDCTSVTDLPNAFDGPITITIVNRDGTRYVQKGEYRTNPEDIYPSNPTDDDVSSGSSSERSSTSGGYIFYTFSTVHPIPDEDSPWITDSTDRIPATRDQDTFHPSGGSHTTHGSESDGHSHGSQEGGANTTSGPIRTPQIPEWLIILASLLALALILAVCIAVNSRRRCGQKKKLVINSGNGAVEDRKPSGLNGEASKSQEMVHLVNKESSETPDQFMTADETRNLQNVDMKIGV

Binder	koff [1]	Kd [2]
E-S0 (mouse E-selectin lectin and EGF domains, no SCR domains) (domain or fragment) WYYNASSELMTYDEASAYCQRDYTHLVAIQNKEEINYLNSNLKHSPSYYWIGIRKVNNVWIWVGTGKPLTEEAQNWAPGEPNNKQRNEDCVEIYIQRTKDSGMWNDERCNKKKLALCYTASCTNASCSGHGECIETINSYTCKCHPGFLGPNCEQ	5e-05 s⁻¹ and 7e-05 s⁻¹	18700 nM
E-S2 (truncated mouse E-selectin with only the first two SCR domains) (domain or fragment) WYYNASSELMTYDEASAYCQRDYTHLVAIQNKEEINYLNSNLKHSPSYYWIGIRKVNNVWIWVGTGKPLTEEAQNWAPGEPNNKQRNEDCVEIYIQRTKDSGMWNDERCNKKKLALCYTASCTNASCSGHGECIETINSYTCKCHPGFLGPNCEQAVTCKPQEHPDYGSLNCSHPFGPFSYNSSCSFGCKRGYLPSSMETTVRCTSSGEWSAPAPACHVVECEALTHPAHGIRKCSSNPGSYPWNTTCTFDCVEGYRRVGAQNLQCTSSGIWDNETPSCKA	0.00016 s⁻¹ and 0.00014 s⁻¹	

The next lines start with the values.

koff [1]	Kd [2]	Binder
0.0002 s⁻¹ and 0.00011 s⁻¹	1190 nM	E-S2-A28H (E-S2 with the A28H mutation in the lectin domain) (domain or fragment) WYYNASSELMTYDEASAYCQRDYTHLVHIQNKEEINYLNSNLKHSPSYYWIGIRKVNNVWIWVGTGKPLTEEAQNWAPGEPNNKQRNEDCVEIYIQRTKDSGMWNDERCNKKKLALCYTASCTNASCSGHGECIETINSYTCKCHPGFLGPNCEQAVTCKPQEHPDYGSLNCSHPFGPFSYNSSCSFGCKRGYLPSSMETTVRCTSSGEWSAPAPACHVVECEALTHPAHGIRKCSSNPGSYPWNTTCTFDCVEGYRRVGAQNLQCTSSGIWDNETPSCKA
0.000225 s⁻¹ and 0.00014 s⁻¹	1700 nM	E-S6 (monomeric full-length extracellular mouse E-selectin) (domain or fragment) WYYNASSELMTYDEASAYCQRDYTHLVAIQNKEEINYLNSNLKHSPSYYWIGIRKVNNVWIWVGTGKPLTEEAQNWAPGEPNNKQRNEDCVEIYIQRTKDSGMWNDERCNKKKLALCYTASCTNASCSGHGECIETINSYTCKCHPGFLGPNCEQAVTCKPQEHPDYGSLNCSHPFGPFSYNSSCSFGCKRGYLPSSMETTVRCTSSGEWSAPAPACHVVECEALTHPAHGIRKCSSNPGSYPWNTTCTFDCVEGYRRVGAQNLQCTSSGIWDNETPSCKAVTCDAIPQPQNGFVSCSHSTAGELAFKSSCNFTCEQSFTLQGPAQVECSAQGQWTPQIPVCKAVQCEALSAPQQGNMKCLPSASGPFQNGSSCEFSCEEGFELKGSRRLQCGPRGEWDSKKPTCSAVKCDDVPRPQNGVMECAHATTGEFTYKSSCAFQCNEGFSLHGSAQLECTSQGKWTQEVPSCQVVQCPSLDVPGKMNMSCSGTAVFGTVCEFTCPDDWTLNGSAVLTCGATGRWSGMPPTCEAPVSPTRP
